# Laboratory results published in patent US20240010721A1.
# Several values for one entry are separate records, joined by “and”; a condition that tells them apart may be missing. Identical values can stand only once.
# How the values were obtained:
# [1] = molecular target: human ROR1 (hROR1) on cells (human) (UniProt Q01973); assay: FACS, HEK293T-hROR1 cells; isotype control
# [2] = molecular target: cynomolgus ROR1 (cynoROR1) on CHO-K1 cells (cynomolgus); assay: FACS, CHO-K1-cynoROR1 cells; isotype control
# [3] = molecular target: human ROR1 (hROR1) on cells (human) (UniProt Q01973); assay: cell-based or functional assay
# [4] = molecular target: human ROR1 (hROR1) on cells (human) (UniProt Q01973); assay: FACS, A549 cells; isotype control
# [5] = molecular target: Human ROR1-ECD-his (human) (UniProt Q01973); assay: ELISA, plate coated with hROR1 ECD-his; isotype control
# Human ROR1-ECD-his (human), sequence (Q01973 30-406): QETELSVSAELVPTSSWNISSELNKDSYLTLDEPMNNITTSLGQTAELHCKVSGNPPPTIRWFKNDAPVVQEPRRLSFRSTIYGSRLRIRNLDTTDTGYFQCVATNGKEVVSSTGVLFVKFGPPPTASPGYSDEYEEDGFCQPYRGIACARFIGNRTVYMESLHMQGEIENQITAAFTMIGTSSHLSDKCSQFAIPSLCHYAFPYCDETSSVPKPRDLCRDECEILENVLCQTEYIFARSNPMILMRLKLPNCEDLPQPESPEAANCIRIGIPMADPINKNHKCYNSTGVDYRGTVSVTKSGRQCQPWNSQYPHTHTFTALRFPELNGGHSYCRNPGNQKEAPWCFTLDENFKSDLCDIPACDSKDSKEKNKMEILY
# hROR2ECD-his (human) = hROR2ECD-his (human) (UniProt Q01974); assay: ELISA, plate coated with hROR2 ECD-his; isotype control
# hROR2ECD-his (human), sequence (Q01974 34-403): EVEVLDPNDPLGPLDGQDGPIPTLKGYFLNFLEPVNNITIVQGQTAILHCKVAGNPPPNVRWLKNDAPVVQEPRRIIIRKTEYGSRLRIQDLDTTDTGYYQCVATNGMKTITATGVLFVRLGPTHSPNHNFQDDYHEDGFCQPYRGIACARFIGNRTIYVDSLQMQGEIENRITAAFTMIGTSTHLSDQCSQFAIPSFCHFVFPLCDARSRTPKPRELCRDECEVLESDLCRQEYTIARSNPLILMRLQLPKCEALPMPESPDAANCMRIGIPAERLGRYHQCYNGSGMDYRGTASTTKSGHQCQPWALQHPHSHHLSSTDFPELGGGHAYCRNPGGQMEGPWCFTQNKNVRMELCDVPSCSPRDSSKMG
# human ROR1 (hROR1) on cells (human), sequence (Q01973 30-937): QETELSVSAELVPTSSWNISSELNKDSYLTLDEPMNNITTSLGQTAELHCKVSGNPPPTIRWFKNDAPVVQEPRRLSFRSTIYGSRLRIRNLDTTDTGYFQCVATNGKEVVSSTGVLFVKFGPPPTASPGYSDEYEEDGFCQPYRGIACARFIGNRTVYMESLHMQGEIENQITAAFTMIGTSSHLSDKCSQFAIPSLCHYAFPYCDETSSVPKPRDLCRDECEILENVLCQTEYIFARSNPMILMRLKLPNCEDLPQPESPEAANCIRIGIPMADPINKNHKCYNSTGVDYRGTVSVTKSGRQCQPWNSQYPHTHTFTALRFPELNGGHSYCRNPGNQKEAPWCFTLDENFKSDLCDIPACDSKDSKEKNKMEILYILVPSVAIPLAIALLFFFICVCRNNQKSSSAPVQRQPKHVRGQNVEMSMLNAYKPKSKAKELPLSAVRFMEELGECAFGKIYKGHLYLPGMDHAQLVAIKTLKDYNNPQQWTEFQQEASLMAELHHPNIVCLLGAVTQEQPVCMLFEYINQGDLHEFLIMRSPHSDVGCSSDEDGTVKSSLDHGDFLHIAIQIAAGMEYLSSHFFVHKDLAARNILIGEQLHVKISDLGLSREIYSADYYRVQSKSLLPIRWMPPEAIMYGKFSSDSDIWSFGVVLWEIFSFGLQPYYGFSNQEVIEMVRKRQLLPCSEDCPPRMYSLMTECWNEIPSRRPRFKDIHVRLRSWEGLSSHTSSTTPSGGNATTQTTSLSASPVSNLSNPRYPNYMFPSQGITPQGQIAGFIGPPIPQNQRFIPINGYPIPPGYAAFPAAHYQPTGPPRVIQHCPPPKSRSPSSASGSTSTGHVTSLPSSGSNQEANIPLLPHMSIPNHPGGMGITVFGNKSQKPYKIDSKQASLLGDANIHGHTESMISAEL
substance,measurement,setting,value
"human Iso IgG1 (CrownBio, Cat#: C0001-4) (antibody)",MAX(MFI),[1],226 MFI
same,MAX(MFI),[2],140 MFI
same,"ADCC Cytotoxicity (%), Donor 1, 1 nM (negative control)",[3],9.89%
same,"ADCC Cytotoxicity (%), Donor 1, 10 nM (negative control)",[3],10.4%
same,"ADCC Cytotoxicity (%), Donor 2, 1 nM (negative control)",[3],10.8%
same,"ADCC Cytotoxicity (%), Donor 2, 10 nM (negative control)",[3],10.5%
same,"ADCP, percentage of double-stained cells, 0.1 nM (control)",[3],6.79% and 5.59%
same,"ADCP, percentage of double-stained cells, 10 nM (control)",[3],6.53% and 7.46%
same,MAX(MFI),[4],119 MFI
same,ELISA signal (called MFI),[5],0.036
same,ELISA signal (called MFI),hROR2ECD-his (human),0.041
